Data: paper PMC9926225

What was measured:
[1] = molecular target: NTD truncated λCI (K192A, residues 101 to 236), C-hexahistidine-tagged (λ phage); test: SEC
[2] = molecular target: RecA (1 to 335), N-heptahistidine-tagged (Escherichia coli); test: cryo-EM structure
Chain of RecA (1 to 335), N-heptahistidine-tagged (Escherichia coli) (A7ZQC8 2-336 limits assumed): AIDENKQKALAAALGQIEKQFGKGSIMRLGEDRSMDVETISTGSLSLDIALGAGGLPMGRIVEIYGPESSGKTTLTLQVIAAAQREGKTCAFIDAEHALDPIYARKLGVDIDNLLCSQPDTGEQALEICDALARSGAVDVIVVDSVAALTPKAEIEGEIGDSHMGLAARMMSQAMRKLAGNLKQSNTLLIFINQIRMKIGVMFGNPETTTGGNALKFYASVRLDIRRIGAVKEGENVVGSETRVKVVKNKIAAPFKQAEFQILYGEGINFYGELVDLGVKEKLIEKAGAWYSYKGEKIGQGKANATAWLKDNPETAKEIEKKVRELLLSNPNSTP

| stoichiometry N [1] | stoichiometry N (DinI molecules per RecA protomer) [2] | Molecule |
| --- | --- | --- |
| 2 | – | NTD truncated λCI (K192A, residues 101 to 236), C-hexahistidine-tagged (domain or fragment) |
| – | 0.5 | DinI (natural protein) MRIEVTIAKTSPLPAGAIDALAGELSRRIQYAFPDNEGHVSVRYAAANNLSVIGATKEDKQRISEILQETWESADDWFVSE |
